Experiments:
[1] = biological target: cell surface IgG (sIgG) of the sIgG+ B-cell line SU-DHL-4 (human (endogenous in SU-DHL-4))
[2] = biological target: cell surface IgG (sIgG) of the sIgG+ B-cell line SU-DHL-4 (human (endogenous in SU-DHL-4)); remark: listed apart in the source

With “IgAimG (SpA toxin 2): diphtheria toxin without its receptor binding domain, GGGS linker, SpA ZZ domain” the viability of the sIgG+ B-cell line SU-DHL-4 after 3 days with the toxin (luminescent cell viability assay); toxic from 0.0001 μg/ml (% of cells killed) [1] was 99 and the viability of SU-DHL-4 after 3 days with 10 to 100 μg/ml IgAimG in the presence of human serum (luminescent cell viability assay) (% of cells killed) [2] was greater than 99.

From PMC12429969
